The text below walks through data of patent US20230012273A1 (Boehringer Ingelheim, published 2023).

For assay [1], the target named is ED-tagged human SIRPα V1 receptor on Jurkat signaling reporter cells (human, UniProt P78324 31-504). Description: cell-based or functional assay.
The target of assay [2] is ED-tagged human SIRPα V2 receptor on Jurkat signaling reporter cells (human, UniProt P78324 31-504). Description: cell-based or functional assay.
Assay [3] concerns the target T1, full-length human SIRPβ1 (NP_006056.2) on cells (human, UniProt O00241 30-398).
T1 construct: also called β1 WT
The assay is described as follows: flow cytometry, U937 SIRPα-KO transfectants. As to the method: (§1) Antibody binding to cells expressing full-length human SIRPβ1 (NP_006056.2) and SIRPβL (NP_001129316.1) is evaluated by flow cytometry. SIRPβ1- or SIRPβL-expressing U937^{SIRPα KO} cells are blocked with donkey IgG and incubated on ice with increasing concentrations of antibodies for 60 minutes, washed and stained with AF647-conjugated donkey F(ab′)₂ anti-human IgG secondary reagent. Cells are washed, fixed, and analyzed by flow cytometry. Median fluorescent intensity is determined and used as a measure of antibody binding.
(Flow cytometry measures light scatter and fluorescence of single cells or particles in a stream.)

Assay [4] concerns the target T2, full-length human SIRPγ (NP_061026.2) on cells (human, UniProt Q9P1W8 29-387).
T2 construct: also called CHO-hSIRPγ; γ WT
Description: flow cytometry, primary human CD3+ T cells (endogenous SIRPγ). As to the method: (§2) Antibody binding to primary human T cells expressing endogenous SIRPγ is evaluated by flow cytometry. Human peripheral blood mononuclear cells (PBMCs) are blocked with donkey IgG and incubated on ice with increasing concentrations of antibody for 60 minutes, washed and stained with AF647-conjugated donkey F(ab′)₂ anti-human IgG secondary reagent. […] Cells are washed, fixed, and analyzed by flow cytometry. Median fluorescent intensity of CD3+ gated population is determined and used as a measure of antibody binding.

Assay [5] has as its target T3, full-length human SIRPβL (NP_001129316.1) on cells (human, UniProt Q5TFQ8 30-398).
T3 construct: one molecule for U937 SIRPα-KO transfectants (NP_001129316.1) and Expi-CHO transfectants (Q5TFQ8); also called SIRPβ1v3; βL WT
Description: flow cytometry, U937 SIRPα-KO cells expressing full-length human SIRPβL. As to the method:
as §1

The target in assay [6] is T2, full-length human SIRPγ (NP_061026.2) …. The assay is described as follows: flow cytometry, primary CD3+ T cells. As to the method:
as §2

In assay [7] the target is T4, full-length human SIRPαV1 (NP_542970.1) on cells (human, UniProt P78324 31-504).
T4 construct: one molecule for CHO-K1 and Expi-CHO transfectants (NP_542970.1) and for endogenous V1 on U-937 cells and on CD14+ monocytes of V1/V1 donors; also called CHO-hSIRPαV1; αV1 WT
Description: flow cytometry, CD14+ monocytes V1V1. As to the method:
as §2, with “human” for “human T”, “expressing SIRPα” for “expressing endogenous SIRPγ”, “(PBMCs) from donors genotyped as homozygous for the SIRPα V1 allele, V2 allele, or heterozygous for both alleles” for “(PBMCs)”, “of the CD14+” for “of CD3+ gated”, “population was” for “population is”

For assay [8], the target named is T5, full-length human SIRPαV2 (CAA71403.1) on cells (human, UniProt P78324 31-504).
T5 construct: one molecule for CHO-K1 and Expi-CHO transfectants (CAA71403.1) and for endogenous V2 on THP-1 cells and on CD14+ monocytes of V2/V2 donors; also called CHO-hSIRPαV2; αV2 WT
The assay is described as follows: flow cytometry, CD14+ monocytes V2V2. As to the method:
as §2, with “human” for “human T”, “expressing SIRPα” for “expressing endogenous SIRPγ”, “(PBMCs) from donors genotyped as homozygous for the SIRPα V1 allele, V2 allele, or heterozygous for both alleles” for “(PBMCs)”, “of the CD14+” for “of CD3+ gated”, “population was” for “population is”

The target in assay [9] is T3, full-length human SIRPβL …. The assay is described as follows: flow cytometry, U937 SIRPα-KO transfectants. As to the method: as §1
The target of assay [10] is T5, full-length human SIRPαV2 (CAA71403.1) …. The assay is described as follows: flow cytometry, competition with CD47 tetramer, monocytes V2V2. As to the method: Cells are washed, fixed, and analyzed by flow cytometry. Median fluorescent intensity of CD14+gated population is determined and used as a measure of CD47 binding.
In assay [11] the target is T1, full-length human SIRPβ1 (NP_006056.2) …. The assay is described as follows: flow cytometry, Expi-CHO cells. As to the method:
(§3) These cells are blocked with donkey IgG and incubated on ice with increasing concentrations of antibodies for 60 minutes, washed and stained with AF647-conjugated donkey F(ab′)₂ anti-human IgG antibodies. Stained cells are washed, fixed, and analyzed by flow cytometry. Median fluorescent intensity is determined and used as a measure of antibody binding.

For assay [12], the target named is T6, full-length human SIRPβL H→D on Expi-CHO cells (human, UniProt Q5TFQ8 30-398).
T6 construct: the entry already carries the change (PDHV to PDDV); also called βL WT H→D
Description: flow cytometry, Expi-CHO cells. As to the method: as §3, with “Expi-CHO parental cells are transduced with lentiviruses containing either full-length wild-type human SIRPβL (Q5TFQ8) or full-length human SIRPβL with a single amino acid point mutation (Table 62) and sorted to achieve matching expression levels. These” for “These”
(§4) A single amino acid substitution (H→D) introduced within the loop region maintained, strengthened, or facilitated antibody binding to these cells (FIG. 34B, Table 63).

Assay [13] has as its target T7, full-length human SIRPγ N→D on Expi-CHO cells (human, UniProt Q9P1W8 29-387).
T7 construct: the entry already carries the change (PENV to PEDV)
The assay is described as follows: flow cytometry, Expi-CHO cells. As to the method:
(§5) Expi-CHO parental cells are transduced with lentiviruses containing either full-length wild-type human SIRPγ ([…]) or full-length human SIRPγ with amino acid point mutations (Table 64) and sorted to achieve matching expression levels. These cells are blocked with donkey IgG and incubated on ice with increasing concentrations of antibodies for 60 minutes, washed and stained with AF647-conjugated donkey F(ab′)₂ anti-human IgG antibodies. Stained cells are washed, fixed, and analyzed by flow cytometry. Median fluorescent intensity is determined and used as a measure of antibody binding.

The target of assay [14] is T8, full-length human SIRPγ EN→DD on Expi-CHO cells (human, UniProt Q9P1W8 29-387).
T8 construct: the entry already carries the change (PENV to PDDV)
T8 chain: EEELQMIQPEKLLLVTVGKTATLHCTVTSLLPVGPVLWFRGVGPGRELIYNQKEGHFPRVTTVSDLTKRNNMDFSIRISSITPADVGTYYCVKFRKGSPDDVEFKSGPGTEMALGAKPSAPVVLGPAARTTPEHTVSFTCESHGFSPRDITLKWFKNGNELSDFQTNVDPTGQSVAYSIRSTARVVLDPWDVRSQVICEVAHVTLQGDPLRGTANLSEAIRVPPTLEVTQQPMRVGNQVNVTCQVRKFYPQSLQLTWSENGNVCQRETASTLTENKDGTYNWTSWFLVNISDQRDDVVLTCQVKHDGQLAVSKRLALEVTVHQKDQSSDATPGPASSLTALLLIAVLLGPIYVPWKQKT
Description: flow cytometry, Expi-CHO cells. As to the method:
as §5

The target in assay [15] is T9, full-length human SIRPγ E→D on Expi-CHO cells (human, UniProt Q9P1W8 29-387).
T9 construct: the entry already carries the change (PENV to PDNV)
The assay is described as follows: flow cytometry, Expi-CHO cells expressing full-length human SIRPγ E→D. As to the method:
as §5

Assay [16] has as its target T10, full-length human SIRPβ1 D→H on Expi-CHO cells (human, UniProt O00241 30-398).
T10 construct: the entry already carries the change (PDDV to PDHV)
Description: flow cytometry, Expi-CHO cells expressing full-length human SIRPβ1 D→H. As to the method: as §3

For assay [17], the target named is T2, full-length human SIRPγ (NP_061026.2) …. The assay is described as follows: flow cytometry, Expi-CHO cells expressing full-length wild-type human SIRPγ. As to the method: […] These cells are blocked with donkey IgG and incubated on ice with increasing concentrations of antibodies for 60 minutes, washed and stained with AF647-conjugated donkey F(ab′)₂ anti-human IgG antibodies. Stained cells are washed, fixed, and analyzed by flow cytometry. Median fluorescent intensity is determined and used as a measure of antibody binding.

The target of assay [18] is T3, full-length human SIRPβL …. The assay is described as follows: flow cytometry, Expi-CHO cells expressing full-length wild-type human SIRPβL. As to the method: Expi-CHO parental cells are transduced with lentiviruses containing either full-length wild-type human SIRPβL (Q5TFQ8) or full-length human SIRPβL with a single amino acid point mutation (Table 62) and sorted to achieve matching expression levels. These cells are blocked with donkey IgG and incubated on ice with increasing concentrations of antibodies for 60 minutes, washed and stained with AF647-conjugated donkey F(ab′)₂ anti-human IgG antibodies. Stained cells are washed, fixed, and analyzed by flow cytometry. Median fluorescent intensity is determined and used as a measure of antibody binding.
as §4

B1: Antibody F (antibody, human IgG4 S228P, kappa)
heavy: not shown
light: DIQMTQSPSSLSASVGDRVTITCRASQDINNYLAWFQQKPGKAPKSLIYTASSLHSGVPSKFSGSGSGTDFTLTISSLQPEDFATYYCQQYVSYPYTFGQGTKLEIKRTVAAPSVFIFPPSDEQLKSGTASVVCLLNNFYPREAKVQWKVDNALQSGNSQESVTEQDSKDSTYSLSSTLTLSKADYEKHKVYACEVTHQGLSSPVTKSFNRGEC
As usually defined, the EC50 is the concentration that produces a half-maximal response. In the case of B1, the entries for the “Blockade of Cellular CD47-Mediated SIRPα Signaling; IC50” value (from here on “Blockade”) in assay [1] and in assay [2] were 0.04 nM and 0.03 nM, respectively. Besides, the half-maximal effective concentration (EC50) in assay [3] stood at 0.2 nM. The values for the binding result in assay [4] and in [5] were “no binding (tested: about 67 nM)” and “no binding (tested: about 200 nM)”, respectively.

B2: Antibody A11 (antibody, human IgG4 S228P, kappa)
heavy: not shown
light: B1 light
As to B2, the figures for the “Blockade” value in [1] and in assay [2] were 0.04 nM and 0.02 nM, respectively. Further, the results for the binding result in assay [6] and in assay [5] were “no binding” and “no binding (tested: about 200 nM)”, respectively. In [3], the midpoint of the response, the EC50, lay at 0.3 nM.

B3: Antibody G (antibody, human IgG4 S228P, kappa)
heavy: not shown
light: DIVMTQSPLSLPVTPGEPASISCKSSQSLLYSNGYNYLDWYLQRPGQSPQLLIYLGSNRASGVPDRFSGSGSGTDFTLKISRVEAEDVGVFYCMQALQTPLTFGGGTKVEIKRTVAAPSVFIFPPSDEQLKSGTASVVCLLNNFYPREAKVQWKVDNALQSGNSQESVTEQDSKDSTYSLSSTLTLSKADYEKHKVYACEVTHQGLSSPVTKSFNRGEC
One may read the IC50 as the concentration that gives 50% inhibition. Consider B3, for which the “Blockade” value in assay [1] was 0.04 nM; in assay [2], 0.03 nM. Moreover, the half-maximal effective concentration (EC50) in assay [7] is 0.3 nM; in [8], 0.4 nM; in assay [9] it was 0.3 nM. This molecule also came in with a half-inhibitory concentration (IC50) in assay [10] of 0.22 nM. In [4], the binding result is “no binding (tested: about 67 nM)”.

B4: Antibody A4 (antibody, human IgG1, kappa, L234A L235A, V domains shown)
VH: EVQLVESGGGLVQPGGSLRLSCAASGFTLSSYDMHWVRQAPGKGLEWVSAIGTAGDTYYTGSVKGRFTISRENAKNSLYLQMNSLRAADTAVYYCVRGGVWDDAFDIWGQGTMVTVSS
VL: DIQMTQSPSSLSASVGDRVTITCRASQGINNYAAWFQQKPGKAPKSLIYTASSLHSGVPSKFSGSGSGTDFTLTISSLQPEDFATYYCQQYVSYPYTFGQGTKLEIKR
For the molecule B4, the “Blockade” value was 0.04 nM in assay [1] and 0.05 nM in assay [2]. Also, the EC50 in assay [11] is 1.5 nM; in assay [12], 0.5 nM; in [13], 0.5 nM; in assay [14] it was 0.7 nM; in assay [3], 0.2 nM. In addition, the binding result in [15], in assay [16], in assay [17] and in assay [18] was “no binding (tested: about 67 nM)” throughout.
